Laboratory results from article doi:10.1101/2025.11.18.689095 (bioRxiv, 2025).

T1: ^19F-labeled Tom70 (5-fluoro-tryptophan, residues 108–608) (human, UniProt O94826 108-608, 5-fluoro-tryptophan at W169 and W523)
T1 construct: human Tom70, residues 108-608; also called ^19F Tom70; 5F-Trp Tom70; source: E. coli BL21(DE3) in M9 media supplemented with 5-fluoro-tryptophan, purified as unlabeled Tom70; not shown: Avi, N-terminal, cleaved; His6, N-terminal, cleaved
T1 sequence: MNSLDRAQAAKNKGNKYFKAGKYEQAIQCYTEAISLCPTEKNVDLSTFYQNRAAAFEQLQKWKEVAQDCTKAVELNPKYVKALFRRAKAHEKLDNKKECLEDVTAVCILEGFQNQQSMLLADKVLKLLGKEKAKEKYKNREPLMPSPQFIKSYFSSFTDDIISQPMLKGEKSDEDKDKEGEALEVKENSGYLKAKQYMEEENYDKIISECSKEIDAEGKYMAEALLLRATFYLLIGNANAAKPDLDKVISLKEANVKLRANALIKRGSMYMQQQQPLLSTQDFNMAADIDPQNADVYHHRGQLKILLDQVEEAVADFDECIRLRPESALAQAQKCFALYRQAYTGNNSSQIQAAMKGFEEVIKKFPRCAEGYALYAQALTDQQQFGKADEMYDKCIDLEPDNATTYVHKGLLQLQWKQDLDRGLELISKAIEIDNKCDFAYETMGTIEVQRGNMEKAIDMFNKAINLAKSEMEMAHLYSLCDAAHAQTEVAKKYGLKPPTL

T2: human Tom70 (residues 108–608) (human, UniProt O94826 108-608)
T2 construct: human Tom70 (translocase of outer mitochondria membrane 70), residues 108-608; N-terminal Avi tag, His6 tag, (GGS)5 linker and TEV site removed by TEV protease; also called hTom70; free Tom70; source: E. coli BL21 (DE3), purified (Ni-NTA, TEV cleavage, second Ni column, SEC); not shown: Avi, N-terminal, cleaved; His6, N-terminal, cleaved
T2 sequence: T1 sequence

B1: Orf9b_(Helix) peptide (peptide)
peptide: IILRLGSPLSLNMARKTLNSLEDKAFQLTPIAVQY
notes: SARS-CoV-2 Orf9b residues 44-77, the helical region seen in the Tom70-Orf9b structure; tyrosine added to aid with quantification
B2: Tom70:Orf9b_(Helix) complex (complex)
chain 1: T1 sequence
chain 2: B1 peptide
notes: human Tom70, residues 108-608; SARS-CoV-2 Orf9b residues 44-77; tyrosine added to aid with quantification; not shown: Avi, N-terminal, cleaved; His6, N-terminal, cleaved

Legend:
Conditions in all cases: both partners purified
[1] = biological target: T1, ^19F-labeled Tom70 …; assay: NMR titration; […]) 130 μM, […]) 400 μM, […]; 25°C; […]
[2] = biological target: T2, human Tom70 (residues 108–608); assay: ITC; Orf9b_(Helix) (120 μM) titrated into 15 μM Tom70 or Tom70:Hsp90_(EEVD) complex (15 μM Tom70: 400 μM Hsp90_(EEVD)); 20°C; 20 mM sodium phosphate pH 7, 100 mM NaCl, 2 mM TCEP; 1:1 binding model
[3] = biological target: T3, Tom70:Hsp90_(EEVD) complex (human, UniProt O94826 108-608, C-terminus not amidated (free carboxyl)); assay: as above
T3 construct: human Tom70, residues 108-608; tyrosine added to aid with quantification; C-terminal residues 724-732 of human Hsp90α; also called Tom70 complexed with Hsp90_(EEVD) peptide; not shown: Avi, N-terminal, cleaved; His6, N-terminal, cleaved

[4] = biological target: T4, human Hsp90α (residues 1–732), full-length (human, UniProt P07900 1-732); assay: ITC; […] (400 μM), […] (400 μM), […] (500 μM) […] (20 μM); 20°C; 20 mM sodium phosphate pH 8, 150 mM NaCl, 2 mM TCEP, 10% glycerol; 1:1 binding model
T4 construct: human Hsp90α, residues 1-732; also called full-length Hsp90; heat shock protein 90; source: E. coli BL21 Star (DE3) pLysS, purified (Ni-INDIGO, TEV cleavage, second Ni-INDIGO, HiPrep Q); not shown: Avi, N-terminal, cleaved; His6, N-terminal, cleaved

| Binder | binding result [1] | binding result [2] | binding result [3] | fold by which the inhibitory effect of full-length Orf9b exceeds that of Orf9b_(Helix) [4] |
| --- | --- | --- | --- | --- |
| B1 | binds | binds | binds | – |
| B2 | – | – | – | 2.4 fold |
